For this assay, the target named is full-length t-SNARE complex (mouse His6-SNAP25B, residues 1-206 and rat Syntaxin1A, residues 1-288) (mouse | rat) (UniProt P60879).

The text below walks through data of article PMC7220375.

full-length t-SNARE complex (mouse His6-SNAP25B, residues 1-206 and rat Syntaxin1A, residues 1-288) (mouse | rat), sequence (P60879 whole entry, chain 1 of 2, the tested form may be a part): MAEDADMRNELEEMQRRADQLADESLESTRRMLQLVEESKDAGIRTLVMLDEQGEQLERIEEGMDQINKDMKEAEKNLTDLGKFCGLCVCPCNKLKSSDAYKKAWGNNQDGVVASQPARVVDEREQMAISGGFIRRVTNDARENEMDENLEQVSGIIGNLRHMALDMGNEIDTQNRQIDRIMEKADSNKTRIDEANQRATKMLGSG
full-length t-SNARE complex (mouse His6-SNAP25B, residues 1-206 and rat Syntaxin1A, residues 1-288) (mouse | rat), sequence (chain, as listed by the source, chain 2 of 2): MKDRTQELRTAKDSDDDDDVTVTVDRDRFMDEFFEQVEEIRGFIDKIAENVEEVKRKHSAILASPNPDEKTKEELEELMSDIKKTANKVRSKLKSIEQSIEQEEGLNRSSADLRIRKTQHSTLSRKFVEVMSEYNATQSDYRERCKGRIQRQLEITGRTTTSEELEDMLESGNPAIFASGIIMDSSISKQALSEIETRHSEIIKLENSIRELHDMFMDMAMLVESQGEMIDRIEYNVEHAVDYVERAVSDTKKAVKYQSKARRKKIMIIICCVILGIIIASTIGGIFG

“Syt1^LLQQ (rat Synaptotagmin1-His6, residues 57-421, L387Q/L394Q) (from UniProt P21707 57-421) (domain or fragment)” yielded a share of clamped vesicles that stay unfused after Ca2+ (1 mM), normal VAMP2, with 2 µM Cpx (tripartite interface of Syt1 with Cpx and SNAREs) of 25%.
